From US6339139

Tests used:
Assay in all cases: cell-based or functional assay
[1] = target: insulin growth factor II receptor (human) (UniProt P11717)
[2] = target: insulin growth factor I receptor (human) (UniProt P08069)
[3] = target: epidermal growth factor receptor (human) (UniProt P00533)

Sequence of UniProt P11717 (P11717 41-2491): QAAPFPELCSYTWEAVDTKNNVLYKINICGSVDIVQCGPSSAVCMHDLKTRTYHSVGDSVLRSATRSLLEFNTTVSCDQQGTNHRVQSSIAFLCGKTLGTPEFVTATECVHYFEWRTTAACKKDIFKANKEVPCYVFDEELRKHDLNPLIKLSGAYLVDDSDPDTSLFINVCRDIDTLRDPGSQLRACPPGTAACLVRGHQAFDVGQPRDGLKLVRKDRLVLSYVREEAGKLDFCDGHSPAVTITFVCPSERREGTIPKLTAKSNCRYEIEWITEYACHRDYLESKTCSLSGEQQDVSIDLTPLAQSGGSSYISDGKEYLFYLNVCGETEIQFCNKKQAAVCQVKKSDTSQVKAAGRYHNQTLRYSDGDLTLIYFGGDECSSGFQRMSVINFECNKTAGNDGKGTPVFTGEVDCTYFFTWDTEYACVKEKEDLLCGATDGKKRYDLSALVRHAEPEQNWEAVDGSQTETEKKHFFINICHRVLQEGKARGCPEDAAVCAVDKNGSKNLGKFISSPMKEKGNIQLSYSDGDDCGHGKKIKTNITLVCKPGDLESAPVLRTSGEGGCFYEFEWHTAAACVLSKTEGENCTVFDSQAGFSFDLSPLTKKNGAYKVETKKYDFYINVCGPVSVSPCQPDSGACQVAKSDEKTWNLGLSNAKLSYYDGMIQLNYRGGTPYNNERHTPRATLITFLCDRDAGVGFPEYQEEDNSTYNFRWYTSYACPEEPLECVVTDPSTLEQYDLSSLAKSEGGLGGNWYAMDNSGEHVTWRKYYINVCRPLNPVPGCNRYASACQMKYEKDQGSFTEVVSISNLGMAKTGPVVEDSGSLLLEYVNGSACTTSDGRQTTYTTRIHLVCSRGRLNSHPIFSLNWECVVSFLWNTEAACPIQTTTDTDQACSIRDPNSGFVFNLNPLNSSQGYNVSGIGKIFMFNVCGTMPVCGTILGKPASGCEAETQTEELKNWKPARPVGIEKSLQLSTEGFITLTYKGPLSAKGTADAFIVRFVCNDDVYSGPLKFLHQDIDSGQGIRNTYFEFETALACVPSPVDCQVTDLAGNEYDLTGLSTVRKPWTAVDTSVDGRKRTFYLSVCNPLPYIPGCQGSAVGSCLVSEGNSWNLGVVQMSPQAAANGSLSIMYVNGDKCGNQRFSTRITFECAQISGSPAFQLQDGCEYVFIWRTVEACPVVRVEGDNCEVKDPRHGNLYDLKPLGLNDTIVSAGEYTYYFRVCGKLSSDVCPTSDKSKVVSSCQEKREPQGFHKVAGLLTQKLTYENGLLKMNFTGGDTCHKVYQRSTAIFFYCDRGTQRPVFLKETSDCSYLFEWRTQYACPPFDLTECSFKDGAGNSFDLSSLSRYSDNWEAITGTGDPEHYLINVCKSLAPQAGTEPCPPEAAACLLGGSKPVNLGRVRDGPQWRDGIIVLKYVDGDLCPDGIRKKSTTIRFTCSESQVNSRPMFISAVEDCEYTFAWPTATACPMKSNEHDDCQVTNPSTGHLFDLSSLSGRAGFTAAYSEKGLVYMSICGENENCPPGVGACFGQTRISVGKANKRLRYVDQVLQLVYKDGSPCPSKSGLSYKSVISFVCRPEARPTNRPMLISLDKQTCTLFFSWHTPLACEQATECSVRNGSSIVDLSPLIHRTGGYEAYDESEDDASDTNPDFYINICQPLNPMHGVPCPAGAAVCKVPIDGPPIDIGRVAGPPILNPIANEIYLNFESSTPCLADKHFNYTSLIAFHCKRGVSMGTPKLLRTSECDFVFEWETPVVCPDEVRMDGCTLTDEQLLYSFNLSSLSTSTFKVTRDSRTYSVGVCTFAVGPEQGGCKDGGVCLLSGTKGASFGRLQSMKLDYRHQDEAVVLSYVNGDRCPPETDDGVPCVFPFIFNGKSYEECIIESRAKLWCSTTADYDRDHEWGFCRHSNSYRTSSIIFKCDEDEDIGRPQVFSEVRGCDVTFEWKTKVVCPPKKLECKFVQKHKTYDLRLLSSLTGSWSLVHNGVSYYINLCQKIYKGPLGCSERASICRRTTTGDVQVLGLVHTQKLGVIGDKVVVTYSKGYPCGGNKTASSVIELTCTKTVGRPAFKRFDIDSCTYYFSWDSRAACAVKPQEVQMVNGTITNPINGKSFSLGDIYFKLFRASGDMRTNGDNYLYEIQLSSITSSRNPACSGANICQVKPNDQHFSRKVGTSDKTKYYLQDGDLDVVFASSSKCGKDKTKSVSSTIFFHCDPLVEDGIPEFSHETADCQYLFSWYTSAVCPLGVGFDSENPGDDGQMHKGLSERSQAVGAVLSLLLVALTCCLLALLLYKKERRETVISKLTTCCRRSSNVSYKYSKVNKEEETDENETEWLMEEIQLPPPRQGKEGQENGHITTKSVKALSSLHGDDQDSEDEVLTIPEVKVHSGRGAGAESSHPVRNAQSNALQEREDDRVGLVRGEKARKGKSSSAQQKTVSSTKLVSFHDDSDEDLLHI
Sequence of UniProt P08069 (P08069 31-1367): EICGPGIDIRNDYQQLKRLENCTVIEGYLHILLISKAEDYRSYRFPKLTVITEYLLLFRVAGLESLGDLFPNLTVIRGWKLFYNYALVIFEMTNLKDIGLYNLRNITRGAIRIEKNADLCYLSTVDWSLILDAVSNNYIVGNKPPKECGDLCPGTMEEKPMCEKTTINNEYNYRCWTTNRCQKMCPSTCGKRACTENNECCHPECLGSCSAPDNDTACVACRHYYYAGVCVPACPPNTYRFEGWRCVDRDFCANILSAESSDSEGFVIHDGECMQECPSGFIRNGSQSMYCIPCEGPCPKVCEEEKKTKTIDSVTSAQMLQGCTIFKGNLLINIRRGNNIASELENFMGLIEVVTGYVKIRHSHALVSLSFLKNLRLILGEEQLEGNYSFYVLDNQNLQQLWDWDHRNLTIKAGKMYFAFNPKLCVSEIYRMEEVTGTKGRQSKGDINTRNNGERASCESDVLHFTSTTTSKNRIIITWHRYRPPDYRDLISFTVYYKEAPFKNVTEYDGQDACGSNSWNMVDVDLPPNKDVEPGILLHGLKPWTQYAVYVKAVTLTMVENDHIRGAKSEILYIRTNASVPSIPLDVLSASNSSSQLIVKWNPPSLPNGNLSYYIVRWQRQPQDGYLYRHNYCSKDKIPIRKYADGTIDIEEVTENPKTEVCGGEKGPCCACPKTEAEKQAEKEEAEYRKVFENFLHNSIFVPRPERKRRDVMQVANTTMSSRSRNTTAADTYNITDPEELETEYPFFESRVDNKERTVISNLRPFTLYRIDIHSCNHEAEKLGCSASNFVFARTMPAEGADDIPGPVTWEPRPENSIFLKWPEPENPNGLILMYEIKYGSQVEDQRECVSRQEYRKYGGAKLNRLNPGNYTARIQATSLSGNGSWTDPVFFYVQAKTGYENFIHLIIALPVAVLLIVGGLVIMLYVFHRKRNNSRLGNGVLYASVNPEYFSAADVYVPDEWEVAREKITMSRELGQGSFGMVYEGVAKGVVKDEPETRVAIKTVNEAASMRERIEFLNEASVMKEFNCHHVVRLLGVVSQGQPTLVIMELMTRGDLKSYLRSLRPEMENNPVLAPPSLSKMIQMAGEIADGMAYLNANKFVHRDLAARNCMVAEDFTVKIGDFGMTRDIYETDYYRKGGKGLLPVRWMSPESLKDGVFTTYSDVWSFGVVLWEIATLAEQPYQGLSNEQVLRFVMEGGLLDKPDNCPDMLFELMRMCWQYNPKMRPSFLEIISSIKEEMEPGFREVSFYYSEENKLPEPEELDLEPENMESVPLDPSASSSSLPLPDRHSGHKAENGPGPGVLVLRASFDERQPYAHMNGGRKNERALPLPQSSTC

Substance | Percentage of β-gal positive cells, SMMC-7721 [1] | Percentage of β-gal positive cells, SMMC-7721 [2] | Percentage of β-gal (+) cells, 3AO [3] | Percentage of β-gal (+) cells, BEL-7402 [3] | Percentage of β-gal (+) cells, Bcap-37 [3] | Percentage of β-gal (+) cells, SMMC-7721 [3] | Percentage of β-gal (+) cells, SPC-A1 [3] | Percentage of β-gal (+) cells, U87 [3]
E5-polylysine/HA20-polylysine/pSV β-gal DNA | 60% | 60% |  |  |  |  |  | 
GE7-polylysine/HA20-polylysine/pSV-β-gal DNA |  |  | > 65% | > 90% | > 80% | > 80% | > 80% | > 30%
E5-polylysine/pSV β-gal DNA | 10% | 10% |  |  |  |  |  | 
